B1: MED6 (endogenous) (natural protein)
chain: MAAVDIRDNLLGISWVDSSWIPILNSGSVLDYFSERSNPFYDRTCNNEVVKMQRLTLEHLNQMVGIEYILLHAQEPILFIIRKQQRQSPAQVIPLADYYIIAGVIYQAPDLGSVINSRVLTAVHGIQSAFDEAMSYCRYHPSKGYWWHFKDHEEQDKVRPKAKRKEEPSSIFQRQRVDALLLDLRQKFPPKFVQLKPGEKPVPVDQTKKEAEPIPETVKPEEKETTKNVQQTVSAKGPPEKRMRLQ
B2: MED19 (endogenous) (natural protein)
chain: MENFTALFGAQADPPPPPTALGFGPGKPPPPPPPPAGGGPGTAPPPTAATAPPGADKSGAGCGPFYLMRELPGSTELTGSTNLITHYNLEQAYNKFCGKKVKEKLSNFLPDLPGMIDLPGSHDNSSLRSLIEKPPILSSSFNPITGTMLAGFRLHTGPLPEQCRLMHIQPPKKKNKHKHKQSRTQDPVPPETPSDSDHKKKKKKKEEDPDRKRKKKEKKKKKNRHSPDHPGMGSSQASSSSSLR
B3: MED10 (endogenous) (natural protein)
chain: MAEKFDHLEEHLEKFVENIRQLGIIVSDFQPSSQAGLNQKLNFIVTGLQDIDKCRQQLHDITVPLEVFEYIDQGRNPQLYTKECLERALAKNEQVKGKIDTMKKFKSLLIQELSKVFPEDMAKYRSIRGEDHPPS
B4: MED18 (endogenous) (natural protein)
chain: MEAPPVTMMPVTGGTINMMEYLLQGSVLDHSLESLIHRLRGLCDNMEPETFLDHEMVFLLKGQQASPFVLRARRSMDRAGAPWHLRYLGQPEMGDKNRHALVRNCVDIATSENLTDFLMEMGFRMDHEFVAKGHLFRKGIMKIMVYKIFRILVPGNTDSTEALSLSYLVELSVVAPAGQDMVSDDMKNFAEQLKPLVHLEKIDPKRLM
B5: recombinant human CCNC-6xHis (baculovirus) (natural protein)
chain: MAGNFWQSSHYLQWILDKQDLLKERQKDLKFLSEEEYWKLQIFFTNVIQALGEHLKLRQQVIATATVYFKRFYARYSLKSIDPVLMAPTCVFLASKVEEFGVVSNTRLIAAATSVLKTRFSYAFPKEFPYRMNHILECEFYLLELMDCCLIVYHPYRPLLQYVQDMGQEDMLLPLAWRIVNDTYRTDLCLLYPPFMIALACLHVACVVQQKDARQWFAELSVDMEKILEIIRVILKLYEQWKNFDERKEMATILSKMPKPKPPPNSEGEQGPNGSQNSSYSQS
B6: CCNC (endogenous) (natural protein)
chain: B5 chain
B7: MED17 (endogenous) (natural protein)
chain: MSGVRAVRISIESACEKQVHEVGLDGTETYLPPLSMSQNLARLAQRIDFSQGSGSEEEEAAGTEGDAQEWPGAGSSADQDDEEGVVKFQPSLWPWDSVRNNLRSALTEMCVLYDVLSIVRDKKFMTLDPVSQDALPPKQNPQTLQLISKKKSLAGAAQILLKGAERLTKSVTENQENKLQRDFNSELLRLRQHWKLRKVGDKILGDLSYRSAGSLFPHHGTFEVIKNTDLDLDKKIPEDYCPLDVQIPSDLEGSAYIKVSIQKQAPDIGDLGTVNLFKRPLPKSKPGSPHWQTKLEAAQNVLLCKEIFAQLSREAVQIKSQVPHIVVKNQIISQPFPSLQLSISLCHSSNDKKSQKFATEKQCPEDHLYVLEHNLHLLIREFHKQTLSSIMMPHPASAPFGHKRMRLSGPQAFDKNEINSLQSSEGLLEKIIKQAKHIFLRSRAAATIDSLASRIEDPQIQAHWSNINDVYESSVKVLITSQGYEQICKSIQLQLNIGVEQIRVVHRDGRVITLSYQEQELQDFLLSQMSQHQVHAVQQLAKVMGWQVLSFSNHVGLGPIESIGNASAITVASPSGDYAISVRNGPESGSKIMVQFPRNQCKDLPKSDVLQDNKWSHLRGPFKEVQWNKMEGRNFVYKMELLMSALSPCLL
B8: MED14 (endogenous) (natural protein)
chain: not shown
B9: MED22 (endogenous) (natural protein)
chain: MAQQRALPQSKETLLQSYNKRLKDDIKSIMDNFTEIIKTAKIEDETQVSRATQGEQDNYEMHVRAANIVRAGESLMKLVSDLKQFLILNDFPSVNEAIDQRNQQLRTLQEECDRKLITLRDEISIDLYELEEEYYSSSSSLCEANDLPLCEAYGRLDLDTDSADGLSAPLLASPEPSAGPLQVAAPAHSHAGGPGPTEHA
B10: MED31 (endogenous) (natural protein)
chain: MAAAVAMETDDAGNRLRFQLELEFVQCLANPNYLNFLAQRGYFKDKAFVNYLKYLLYWKDPEYAKYLKYPQCLHMLELLQYEHFRKELVNAQCAKFIDEQQILHWQHYSRKRMRLQQALAEQQQQNNTSGK

Assays:
MED13 (endogenous) [1] = molecular target: T1, MED13 (endogenous) (human (endogenous in 293-F), UniProt Q9UHV7 1-2174); assay: cross-linking
MED13L (endogenous) = MED13L (endogenous) (human (endogenous in 293-F), UniProt Q71F56 1-2210); assay: cross-linking
MED14 (endogenous) = molecular target: B8; assay: cryo-EM structure
MED13 (endogenous) [2] = molecular target: T1, MED13 (endogenous); assay: cryo-EM structure
MED12 (endogenous) = MED12 (endogenous) (human (endogenous in 293-F), UniProt Q93074 1-2177); assay: cross-linking
MED12L (endogenous) = MED12L (endogenous) (human (endogenous in 293-F), UniProt Q86YW9 1-2145); assay: cross-linking
[3] = molecular target: recombinant human CDK8-Flag (baculovirus) (human, UniProt P49336 1-464); assay: cryo-EM structure
[4] = molecular target: recombinant human MED12-HA (baculovirus) (human, UniProt Q93074 1-2177); assay: cryo-EM structure
Chain of recombinant human MED12-HA (baculovirus) (Q93074 whole entry): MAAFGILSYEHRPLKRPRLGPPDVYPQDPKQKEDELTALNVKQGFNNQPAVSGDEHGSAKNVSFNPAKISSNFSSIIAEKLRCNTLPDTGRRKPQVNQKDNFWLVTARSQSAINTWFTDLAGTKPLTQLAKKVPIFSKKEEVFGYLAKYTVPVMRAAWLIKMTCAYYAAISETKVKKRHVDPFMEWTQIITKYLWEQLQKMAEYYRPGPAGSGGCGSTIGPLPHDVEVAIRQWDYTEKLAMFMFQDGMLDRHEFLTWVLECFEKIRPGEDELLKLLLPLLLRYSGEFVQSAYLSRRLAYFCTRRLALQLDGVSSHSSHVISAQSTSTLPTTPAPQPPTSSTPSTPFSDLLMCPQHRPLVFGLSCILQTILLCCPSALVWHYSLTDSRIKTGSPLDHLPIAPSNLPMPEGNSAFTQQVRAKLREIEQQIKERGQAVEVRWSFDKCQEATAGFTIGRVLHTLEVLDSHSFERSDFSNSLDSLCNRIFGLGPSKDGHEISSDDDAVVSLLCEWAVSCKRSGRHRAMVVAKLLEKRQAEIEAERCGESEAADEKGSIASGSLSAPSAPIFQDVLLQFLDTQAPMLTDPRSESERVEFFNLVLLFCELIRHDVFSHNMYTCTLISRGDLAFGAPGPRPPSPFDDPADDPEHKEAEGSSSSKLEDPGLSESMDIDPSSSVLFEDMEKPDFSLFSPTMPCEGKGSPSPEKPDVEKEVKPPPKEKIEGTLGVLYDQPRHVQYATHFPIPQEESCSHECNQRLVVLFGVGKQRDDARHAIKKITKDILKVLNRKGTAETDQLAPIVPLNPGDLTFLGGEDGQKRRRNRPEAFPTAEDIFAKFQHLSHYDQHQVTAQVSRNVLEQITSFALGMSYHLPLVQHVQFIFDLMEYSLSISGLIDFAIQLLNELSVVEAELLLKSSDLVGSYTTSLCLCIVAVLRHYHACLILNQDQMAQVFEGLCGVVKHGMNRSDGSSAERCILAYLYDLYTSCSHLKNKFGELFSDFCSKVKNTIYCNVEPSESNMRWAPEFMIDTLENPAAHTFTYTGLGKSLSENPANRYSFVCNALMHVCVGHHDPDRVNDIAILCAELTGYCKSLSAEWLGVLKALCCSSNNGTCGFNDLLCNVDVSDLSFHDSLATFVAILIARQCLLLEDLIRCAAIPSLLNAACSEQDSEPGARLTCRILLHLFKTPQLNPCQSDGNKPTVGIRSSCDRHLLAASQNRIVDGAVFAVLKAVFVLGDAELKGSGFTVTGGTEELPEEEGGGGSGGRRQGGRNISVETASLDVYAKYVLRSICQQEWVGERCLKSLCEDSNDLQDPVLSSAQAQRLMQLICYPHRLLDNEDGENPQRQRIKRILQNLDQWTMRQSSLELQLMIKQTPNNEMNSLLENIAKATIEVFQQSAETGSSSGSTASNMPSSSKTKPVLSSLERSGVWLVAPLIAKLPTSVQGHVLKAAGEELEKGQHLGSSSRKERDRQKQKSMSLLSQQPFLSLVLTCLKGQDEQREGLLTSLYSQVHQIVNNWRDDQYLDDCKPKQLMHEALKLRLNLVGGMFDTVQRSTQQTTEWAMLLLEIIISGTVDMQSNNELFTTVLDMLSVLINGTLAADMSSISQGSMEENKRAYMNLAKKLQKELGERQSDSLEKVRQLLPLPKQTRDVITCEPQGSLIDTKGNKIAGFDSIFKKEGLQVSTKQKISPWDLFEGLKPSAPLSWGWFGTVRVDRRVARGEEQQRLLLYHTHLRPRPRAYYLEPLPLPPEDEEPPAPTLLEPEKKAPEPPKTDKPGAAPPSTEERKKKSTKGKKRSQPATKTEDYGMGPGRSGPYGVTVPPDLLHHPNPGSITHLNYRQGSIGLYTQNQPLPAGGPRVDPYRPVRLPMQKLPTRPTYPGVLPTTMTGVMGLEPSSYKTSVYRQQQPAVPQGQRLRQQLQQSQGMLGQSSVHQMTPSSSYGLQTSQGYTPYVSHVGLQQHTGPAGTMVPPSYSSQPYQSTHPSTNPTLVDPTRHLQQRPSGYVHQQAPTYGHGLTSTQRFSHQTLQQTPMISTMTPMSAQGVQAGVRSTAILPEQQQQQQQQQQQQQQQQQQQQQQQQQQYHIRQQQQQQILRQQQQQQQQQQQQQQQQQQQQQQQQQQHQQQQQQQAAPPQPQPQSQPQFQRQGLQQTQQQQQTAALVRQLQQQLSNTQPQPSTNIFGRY

Chain of MED13L (endogenous) (Q71F56 whole entry): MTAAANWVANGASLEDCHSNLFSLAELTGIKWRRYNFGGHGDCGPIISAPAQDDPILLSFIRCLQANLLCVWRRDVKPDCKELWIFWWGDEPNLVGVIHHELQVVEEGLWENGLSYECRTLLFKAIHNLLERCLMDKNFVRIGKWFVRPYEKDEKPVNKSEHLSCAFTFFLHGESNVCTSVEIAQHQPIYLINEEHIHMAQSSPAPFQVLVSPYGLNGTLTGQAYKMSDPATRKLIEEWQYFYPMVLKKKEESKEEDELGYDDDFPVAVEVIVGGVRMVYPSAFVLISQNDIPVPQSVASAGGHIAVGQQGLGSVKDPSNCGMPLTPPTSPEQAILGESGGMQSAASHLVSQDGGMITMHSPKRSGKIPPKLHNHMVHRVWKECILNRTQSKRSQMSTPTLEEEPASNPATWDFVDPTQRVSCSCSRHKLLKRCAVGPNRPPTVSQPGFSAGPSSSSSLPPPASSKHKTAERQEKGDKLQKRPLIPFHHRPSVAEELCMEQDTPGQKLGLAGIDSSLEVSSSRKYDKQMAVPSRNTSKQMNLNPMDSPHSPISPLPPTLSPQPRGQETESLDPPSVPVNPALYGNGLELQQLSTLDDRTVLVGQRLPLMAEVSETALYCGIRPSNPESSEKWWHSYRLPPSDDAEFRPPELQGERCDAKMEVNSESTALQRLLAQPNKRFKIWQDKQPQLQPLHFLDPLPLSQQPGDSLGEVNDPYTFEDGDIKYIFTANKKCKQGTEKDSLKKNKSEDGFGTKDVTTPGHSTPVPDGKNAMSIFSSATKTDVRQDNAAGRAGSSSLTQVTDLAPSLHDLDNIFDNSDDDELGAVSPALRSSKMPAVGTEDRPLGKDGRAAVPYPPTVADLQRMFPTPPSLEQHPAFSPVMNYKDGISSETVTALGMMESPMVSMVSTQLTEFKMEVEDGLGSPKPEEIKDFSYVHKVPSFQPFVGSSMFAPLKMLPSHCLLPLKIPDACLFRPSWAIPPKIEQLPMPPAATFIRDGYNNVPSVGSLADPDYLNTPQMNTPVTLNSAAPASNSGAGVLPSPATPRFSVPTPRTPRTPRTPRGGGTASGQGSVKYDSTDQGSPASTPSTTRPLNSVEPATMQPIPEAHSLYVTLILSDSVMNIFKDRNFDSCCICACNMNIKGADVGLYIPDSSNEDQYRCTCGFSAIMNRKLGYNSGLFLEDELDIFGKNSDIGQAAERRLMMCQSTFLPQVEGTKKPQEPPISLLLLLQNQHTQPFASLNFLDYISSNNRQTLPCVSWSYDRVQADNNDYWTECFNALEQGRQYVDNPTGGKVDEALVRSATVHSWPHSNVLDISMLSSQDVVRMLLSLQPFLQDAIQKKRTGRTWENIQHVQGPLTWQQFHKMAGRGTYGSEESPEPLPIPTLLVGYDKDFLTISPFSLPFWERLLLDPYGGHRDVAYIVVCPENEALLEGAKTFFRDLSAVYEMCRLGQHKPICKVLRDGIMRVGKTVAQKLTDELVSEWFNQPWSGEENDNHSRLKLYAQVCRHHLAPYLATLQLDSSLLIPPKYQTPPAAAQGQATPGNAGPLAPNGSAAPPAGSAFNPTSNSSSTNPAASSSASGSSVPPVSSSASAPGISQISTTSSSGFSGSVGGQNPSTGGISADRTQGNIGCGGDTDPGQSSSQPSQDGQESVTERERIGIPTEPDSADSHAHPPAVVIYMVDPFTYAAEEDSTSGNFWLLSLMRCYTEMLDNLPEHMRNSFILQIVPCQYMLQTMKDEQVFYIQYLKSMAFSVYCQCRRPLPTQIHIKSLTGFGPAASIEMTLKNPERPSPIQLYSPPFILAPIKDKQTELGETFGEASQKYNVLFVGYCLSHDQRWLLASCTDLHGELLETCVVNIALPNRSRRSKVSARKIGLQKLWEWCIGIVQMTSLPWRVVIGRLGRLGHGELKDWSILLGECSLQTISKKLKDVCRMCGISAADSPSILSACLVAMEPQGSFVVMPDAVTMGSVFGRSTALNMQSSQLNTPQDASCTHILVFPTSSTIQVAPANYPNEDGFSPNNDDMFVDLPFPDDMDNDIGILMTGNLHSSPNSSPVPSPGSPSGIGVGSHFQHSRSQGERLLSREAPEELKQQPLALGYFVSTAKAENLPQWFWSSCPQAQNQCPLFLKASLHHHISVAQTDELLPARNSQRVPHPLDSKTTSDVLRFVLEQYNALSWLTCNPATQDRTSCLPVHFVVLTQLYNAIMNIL
Chain of MED12 (endogenous) (Q93074 whole entry): as the sequence (Q93074 whole entry) above
Chain of recombinant human CDK8-Flag (baculovirus) (P49336 whole entry): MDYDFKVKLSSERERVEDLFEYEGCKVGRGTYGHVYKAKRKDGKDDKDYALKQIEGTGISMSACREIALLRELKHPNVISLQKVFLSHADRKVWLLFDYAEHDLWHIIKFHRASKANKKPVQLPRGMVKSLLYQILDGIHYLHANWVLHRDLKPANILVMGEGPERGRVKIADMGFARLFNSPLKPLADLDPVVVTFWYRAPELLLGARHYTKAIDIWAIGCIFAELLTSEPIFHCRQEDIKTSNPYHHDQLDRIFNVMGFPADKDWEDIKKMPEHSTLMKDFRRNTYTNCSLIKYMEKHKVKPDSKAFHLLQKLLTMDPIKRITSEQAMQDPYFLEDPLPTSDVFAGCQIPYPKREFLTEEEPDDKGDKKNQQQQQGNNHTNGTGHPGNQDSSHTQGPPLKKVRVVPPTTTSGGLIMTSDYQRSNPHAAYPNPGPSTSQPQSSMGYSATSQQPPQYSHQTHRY

Row | Binder | binding result (MED13 (endogenous) [1]) | binding result (MED13L (endogenous)) | binding result (MED12 (endogenous)) | further results
1 | B1 | binds | binds |  | 
2 | B2 |  |  | binds | binding result (MED14 (endogenous)): binds; binding result (MED13 (endogenous) [2]): binds
3 | B3 | binds |  | binds | binding result (MED14 (endogenous)): binds; binding result (MED12L (endogenous)): binds
4 | B4 |  | binds |  | 
5 | B5 |  |  |  | binding result [3]: binds; binding result [4]: binds
6 | B6 |  |  | binds | 
7 | B7 |  | binds |  | 
8 | B8 |  | binds |  | 
9 | B9 |  | binds |  | 
10 | B10 | binds |  |  | 

Source: paper doi:10.1101/2024.07.01.601608 (bioRxiv, 2024)
